From patent US20120064078

Molecular target: Thr90 phosphorylated Hsp90α (pT90-Hsp90α), recombinant human Hsp90α phosphorylated by recombinant protein kinase A

B1: recombinant human PP5 protein (protein phosphatase 5) (protein)
chain: MAMAEGERTECAEPPRDEPPADGALKRAEELKTQANDYFKAKDYENAIKFYSQAIELNPSNAIYYGNRSLAYLRTECYGYALGDATRAIELDKKYIKGYYRRAASNMALGKFRAALRDYETVVKVKPHDKDAKMKYQECNKIVKQKAFERAIAGDEHKRSVVDSLDIESMTIEDEYSGPKLEDGKVTISFMKELMQWYKDQKKLHRKCAYQILVQVKEVLSKLSTLVETTLKETEKITVCGDTHGQFYDLLNIFELNGLPSETNPYIFNGDFVDRGSFSVEVILTLFGFKLLYPDHFHLLRGNHETDNMNQIYGFEGEVKAKYTAQMYELFSEVFEWLPLAQCINGKVLIMHGGLFSEDGVTLDDIRKIERNRQPPDSGPMCDLLWSDPQPQNGRSISKRGVSCQFGPDVTKAFLEENNLDYIIRSHEVKAEGYEVAHGGRCVTVFSAPNYCDQMGNKASYIHLQGSDLRPQFHQFTAVPHPNVKPMAYANTLLQLGMM
  release of free phosphate (non-radioactive serine/threonine phosphatase assay): the release of free phosphate was also significantly increased, P value<0.005
